This is an account of results in patent publication US20230129812A1 (ACCELERON PHARMA, published 2023).

In experiment [1] the target is T1, GDF11 (UniProt O95390 299-407).
T1 construct: also called BMP11
T1 sequence (looked up): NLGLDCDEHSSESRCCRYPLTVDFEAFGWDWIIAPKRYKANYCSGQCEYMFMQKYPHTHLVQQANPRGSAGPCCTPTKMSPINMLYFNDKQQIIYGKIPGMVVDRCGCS
Description: SPR (Biacore); ligand coupled, receptor flowed over (as reported in WO2006/012627). The text has this: (§1) Other variants have been generated and tested, as reported in WO2006/012627 (incorporated herein by reference in its entirety). See, e.g., pp. 59-60, using ligands coupled to the device and flowing receptor over the coupled ligands. […] Table 11 showing data with respect to these variants is reproduced below: […]
(In SPR one partner is held on a chip, and binding of the other changes the refractive index at the surface.)

Experiment [2] has as its target T2, activin A (UniProt P08476 311-426).
T2 construct: also called ActA
T2 sequence (looked up): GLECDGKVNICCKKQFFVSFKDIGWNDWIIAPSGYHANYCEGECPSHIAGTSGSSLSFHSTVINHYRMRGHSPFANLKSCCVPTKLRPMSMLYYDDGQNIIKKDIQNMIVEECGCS
Description: SPR (Biacore); ligand coupled, receptor flowed over (as reported in WO2006/012627); - means ~1/2 WT binding.
Text: as §1

The target in experiment [3] is T2, activin A. Description: SPR (Biacore); ligand coupled, receptor flowed over (as reported in WO2006/012627).
Text: as §1

The target of experiment [4] is T1, GDF11. The experiment is described as follows: SPR (Biacore); ligand coupled, receptor flowed over (as reported in WO2006/012627); -- means <1/5 WT binding.
Text: as §1

For experiment [5], the target named is T1, GDF11. Description: SPR (Biacore); ligand coupled, receptor flowed over (as reported in WO2006/012627); - means ~1/2 WT binding.
Text: as §1

For experiment [6], the target named is T2, activin A. The experiment is described as follows: SPR (Biacore); receptor-Fc captured by anti-Fc antibody, ligand injected. The protocol:
(§2) A Biacore™-based binding assay was used to compare ligand binding selectivity of the ALK4-Fc:ActRIIB-Fc heterodimeric complex described above with that of ActRIIB-Fc and ALK4-Fc homodimer complexes. The ALK4-Fc:ActRIeB-Fc heterodimer, […], and ALK4-Fc homodimer were independently captured onto the system using an anti-Fc antibody. Ligands were injected and allowed to flow over the captured receptor protein. Results are summarized in Table 13 below, in which ligand off-rates (kd) most indicative of effective polypeptides are denoted in bold.

Experiment [7] concerns the target T3, GDF8 (UniProt O14793 267-375).
T3 construct: also called myostatin
T3 sequence (looked up): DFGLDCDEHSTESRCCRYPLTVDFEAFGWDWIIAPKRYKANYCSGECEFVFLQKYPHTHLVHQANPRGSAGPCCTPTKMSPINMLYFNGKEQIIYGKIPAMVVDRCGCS
The experiment is described as above. The protocol: as §2

Experiment [8] concerns the target T1, GDF11. The description is as above. As to the method:
as §2

A further experiment deals with T4, activin B (UniProt P09529 293-407).
T4 sequence (looked up): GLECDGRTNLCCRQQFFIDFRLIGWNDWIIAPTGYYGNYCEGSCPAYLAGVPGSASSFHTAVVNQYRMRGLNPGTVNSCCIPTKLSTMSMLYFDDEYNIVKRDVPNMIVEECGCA
The description is as above. As to the method: as §2

The next experiment addresses T5, BMP6 (UniProt P22004 375-513, limits assumed).
T5 sequence (looked up): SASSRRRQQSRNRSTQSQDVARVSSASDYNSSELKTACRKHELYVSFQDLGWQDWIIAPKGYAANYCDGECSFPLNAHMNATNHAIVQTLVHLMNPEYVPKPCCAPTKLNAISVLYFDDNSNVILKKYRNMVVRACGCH
The experiment is described as above. The protocol: as §2

The target of another experiment is T6, BMP9 (UniProt Q9UK05 320-429).
T6 construct: also called GDF2
T6 sequence (looked up): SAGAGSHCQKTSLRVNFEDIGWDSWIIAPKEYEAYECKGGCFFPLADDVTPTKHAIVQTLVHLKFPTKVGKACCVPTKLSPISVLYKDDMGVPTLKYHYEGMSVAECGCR
Described as above. The protocol: as §2

Another experiment concerns the target T7, BMP10 (UniProt O95393 317-424).
T7 sequence (looked up): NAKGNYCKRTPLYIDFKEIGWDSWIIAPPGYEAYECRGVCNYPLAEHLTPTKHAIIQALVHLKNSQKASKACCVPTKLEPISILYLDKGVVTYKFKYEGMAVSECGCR
Described as above. The protocol: as §2

A further experiment concerns the target T8, GDF3 (UniProt Q9NR23 251-364).
T8 construct: also called VGR2
T8 sequence (looked up): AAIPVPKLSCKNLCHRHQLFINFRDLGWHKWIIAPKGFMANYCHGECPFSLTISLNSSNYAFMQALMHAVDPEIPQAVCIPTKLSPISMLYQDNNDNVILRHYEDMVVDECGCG
The description is as above. As to the method:
as §2

The target of experiment [9] is T2, activin A. The experiment is described as follows: SPR (Biacore); receptor-Fc captured by anti-hFc antibody, ligand injected. As to the method: (§3) Binding of certain ActRIIB-Fc proteins and ActRIIB variant Fc fusion polypeptides to ligands was tested in a Biacore™ assay.
(§4) The ActRIIB-Fc variants or wild-type protein were captured onto the system using an anti-hFc antibody. Ligands were injected and flowed over the captured receptor proteins.

The target in experiment [10] is T3, GDF8. The description is as above. The protocol: as §3, §4
The target in experiment [11] is T1, GDF11. The experiment is described as above. As to the method:
as §3, §4

Where a chain is given by its changes, count along the chain named. Names may count otherwise.

B1: Soluble ActRIIB-Fc D54A (Table 11) (Fc fusion, UniProt Q13705 19-119, looked up, not shown: a dimerising Fc or GST)
chain: SGRGEAETRECIYYNANWELERTNQSGLERCEGEQAKRLHCYASWANSSGTIELVKKGCWLDDFNCYDRQECVATEENPQVYFCCCEGNFCNERFTHLPEA
Regarding B1, the results for the binding result with GDF11 [1] and with activin A [2] were “no binding” and “binds”, respectively.

B2: Soluble ActRIIB-Fc K74F (Table 11) (Fc fusion, UniProt Q13705 19-119, looked up, not shown: a dimerising Fc or GST)
chain: B1 chain with A36D, K56F
Turning to B2, the binding result in the experiment with activin A [3] is listed as “no binding”. Also, the “binding relative to WT” value with GDF11 [4] is below 0.2 fold.

B3: Soluble ActRIIB-Fc K74Y (Table 11) (Fc fusion, UniProt Q13705 19-119, looked up, not shown: a dimerising Fc or GST)
chain: B1 chain with A36D, K56Y
In the case of B3, the binding result with activin A [3] is reported as “no binding”. Also, the “binding relative to WT” value with GDF11 [4] is below 0.2 fold.

B4: Soluble ActRIIB-Fc D80I (Table 11) (Fc fusion, UniProt Q13705 19-119, looked up, not shown: a dimerising Fc or GST)
chain: B1 chain with A36D, D62I
As for B4, the binding result in the experiment with activin A [3] is “no binding”. In the experiment with GDF11 [4], the “binding relative to WT” value is below 0.2 fold.

B5: Soluble ActRIIB-Fc K74I (Table 11) (Fc fusion, UniProt Q13705 19-119, looked up, not shown: a dimerising Fc or GST)
chain: B1 chain with A36D, K56I
In the case of B5, the binding result with activin A [3] is “no binding”. Moreover, the “binding relative to WT” value with GDF11 [4] is below 0.2 fold.

B6: Soluble ActRIIB-Fc F82A (Table 11) (Fc fusion, UniProt Q13705 19-119, looked up, not shown: a dimerising Fc or GST)
chain: B1 chain with A36D, F64A
Consider B6, for which the binding result with GDF11 [5] is “binds”.

B7: ActRIIB-Fc homodimer (Fc fusion)
chain: GRGEAETRECIYYNANWELERTNQSGLERCEGEQDKRLHCYASWRNSSGTIELVKKGCWLDDFNCYDRQECVATEENPQVYFCCCEGNFCNERFTHLPEAGGPEVTYEPPPTAPTGGGTHTCPPCPAPELLGGPSVFLFPPKPKDTLMISRTPEVTCVVVDVSHEDPEVKFNWYVDGVEVHNAKTKPREEQYNSTYRVVSVLTVLHQDWLNGKEYKCKVSNKALPVPIEKTISKAKGQPREPQVYTLPPSREEMTKNQVSLTCLVKGFYPSDIAVEWESNGQPENNYKTTPPVLDSDGSFFLYSKLTVDKSRWQQGNVFSCSVMHEALHNHYTQKSLSLSPGK
notes: also called ActRIIB-Fc:ActRIIB-Fc homodimer
As for B7, the Kd – broadly, the constant that tells how readily two partners part at equilibrium – with activin A [6] is 19 pM; with GDF8 [7], 280 pM; with GDF11 [8] it was 2 pM; with activin B, 20 pM; with BMP6 it was 190 pM; with BMP9, 77 pM. For the same molecule, the Kd with BMP10 is 11 pM; in the experiment with GDF3, 1500 pM. For the same molecule, the koff (usually a measure of how fast the partners let go of each other) with activin A [6] worked out at 0.00023 s⁻¹; with GDF8 [7], 0.00023 s⁻¹; with GDF11 [8] it was 0.00011 s⁻¹; with activin B, 0.0001 s⁻¹; with BMP6, 0.0068 s⁻¹; with BMP9, 0.0011 s⁻¹. Besides, the results for the koff in the experiment with BMP10 and in the experiment with GDF3 were 0.00026 s⁻¹ and 0.0022 s⁻¹, respectively. For the same molecule, the kon (commonly a measure of how fast the partners come together) with activin A [6] is 1.2e+07 M⁻¹ s⁻¹; with GDF8 [7], 830000 M⁻¹ s⁻¹; with GDF11 [8] it was 5e+07 M⁻¹ s⁻¹; in the experiment with activin B, 5.1e+06 M⁻¹ s⁻¹; with BMP6 it was 3.2e+07 M⁻¹ s⁻¹; with BMP9, 1.4e+07 M⁻¹ s⁻¹. For the same molecule, the kon with BMP10 amounted to 2.3e+07 M⁻¹ s⁻¹; in the experiment with GDF3, 1.4e+06 M⁻¹ s⁻¹.

B8: ALK4-Fc:ActRIIB-Fc heterodimer (Fc fusion)
chain 1: B7 chain with V226A, E252K, D295K
chain 2: SGPRGVQALLCACTSCLQANYTCETDGACMVSIFNLDGMEHHVRTCIPKVELVPAGKPFYCLSSEDLRNTHCCYTDYCNRIDLRVPSGHLKEPEHPSMWGPVETGGGTHTCPPCPAPELLGGPSVFLFPPKPKDTLMISRTPEVTCVVVDVSHEDPEVKFNWYVDGVEVHNAKTKPREEQYNSTYRVVSVLTVLHQDWLNGKEYKCKVSNKALPAPIEKTISKAKGQPREPQVYTLPPSREEMTKNQVSLTCLVKGFYPSDIAVEWESNGQPENNYDTTPPVLDSDGSFFLYSDLTVDKSRWQQGNVFSCSVMHEALHNHYTQKSLSLSPG
notes: The receptor parts are the same in all three; also called ALK4-Fc:ActRIIB-Fc heterodimeric complex; ALK4:ActRIIB heterodimer
In the case of B8, the dissociation constant Kd with activin A [6] amounted to 12 pM; in the experiment with GDF8 [7], 550 pM; with GDF11 [8], 3 pM; in the experiment with activin B, 6 pM; in the experiment with BMP6 it was 2700 pM; in the experiment with BMP9, 3400 pM. For the same molecule, the results for the Kd with BMP10 and with GDF3 were 74 pM and 4900 pM, respectively. For the same molecule, the off-rate (koff) in the experiment with activin A [6] is 0.00015 s⁻¹; with GDF8 [7], 0.00021 s⁻¹; in the experiment with GDF11 [8], 0.00011 s⁻¹; in the experiment with activin B, 4e-05 s⁻¹; with BMP6, 0.0055 s⁻¹; with BMP10, 0.0041 s⁻¹. Besides, in the experiment with GDF3, the koff was found to be 0.017 s⁻¹. Also, the on-rate (kon) in the experiment with activin A [6] was 1.3e+07 M⁻¹ s⁻¹; with GDF8 [7] it was 390000 M⁻¹ s⁻¹; with GDF11 [8], 3.8e+07 M⁻¹ s⁻¹; with activin B, 7.1e+06 M⁻¹ s⁻¹; with BMP6, 2e+06 M⁻¹ s⁻¹; with BMP10 it was 5.6e+07 M⁻¹ s⁻¹. In the experiment with GDF3, this molecule gave a kon of 3.4e+06 M⁻¹ s⁻¹.

B9: ActRIIB(20-134)-hFc (Fc fusion)
chain: B7 chain
notes: also called ActRIIB-hFc
Regarding B9, the Kd came out at 26.8 pM in the experiment with activin A [9], 93.5 pM with GDF8 [10] and 84.2 pM in the experiment with GDF11 [11]. Besides, the off-rate constant (koff) was determined as 0.000159 s⁻¹ with activin A [9], 3.45e-05 s⁻¹ in the experiment with GDF8 [10] and 0.000113 s⁻¹ with GDF11 [11]. Moreover, the results for the kon in the experiment with activin A [9] and in the experiment with GDF11 [11] were 5.94e+06 M⁻¹ s⁻¹ and 1.34e+06 M⁻¹ s⁻¹, respectively.

B10: ActRIIB(R64K 20-134)-hFc (Fc fusion)
chain: B7 chain with R45K
In the experiment with activin A [9], B10 gave a dissociation constant Kd of 47.6 pM, an off-rate constant (koff) of 0.000325 s⁻¹ and a kon of 6.82e+06 M⁻¹ s⁻¹. In the experiment with GDF8 [10], binding was put at a Kd of 210 pM and the dissociation rate constant (koff) amounted to 4.71e-05 s⁻¹. In addition, in the experiment with GDF11 [11], the dissociation constant (Kd) came out at 35.6 pM and the koff was 2.41e-05 s⁻¹.

B11: ActRIIB(L79E 20-134)-hFc (Fc fusion)
chain: B7 chain with L60E
With B11, in the experiment with GDF8 [10], the dissociation constant (Kd) was found to be 2410 pM and the dissociation rate constant (koff) stood at 0.0009 s⁻¹. In the experiment with GDF11 [11], the Kd amounted to 716 pM and the dissociation rate constant (koff) stood at 0.000274 s⁻¹.
